Test: yeast display, Sf9 membrane polyspecificity reagent, FACS + sequencing; frameworks hold sequencing errors
Procedure, shortened: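 A nanobody's polyreactivity label depends on the gate it was sorted from. Yeast display cells were stained with 10% biotinylated, detergent-solubilized Sf9 membrane reagent for 1 hour at 4 °C, enriched on streptavidin microbeads and sorted by FACS. The low and high (top ~1%) gates were set on anti-HA fluorescence for expression and streptavidin fluorescence for reagent binding.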

Sequence | polyreactivity (PSR sort gate)
QVQLVESGGGLVQAGGSLRLSCAASGSIFGGYAMGWYRQAPGKERELVAAITWNGGSTYYADSVKGRFTISRDNAKNTVYLQMNSLKPEDTAVYYCAAELPGRDAGRYDYWGQGTQVTVSS | low polyreactivity
QVQLVESGGGLVQAGGSLRLSCAASGSIFGGYAMGWYRQAPGKEREWVAAITSSGGRTYYADSVKGRFTISRDNAKNTVYLQMNSLKPEDTAVYYCAARYTRWRYNYKDYDYWGQGTQVTVSS | high polyreactivity
QVQLVESGGGLVQAGGSLRLSCAASGSIFGGYGMGWYSQAPGKERELVAAITSGSSTYYADSVKGRFTISRDNAKNTVYLLMNSLKPEDTAVYYCAKVSYYPWRYDYWGQGTQVTVTS | low polyreactivity
QVQLVESGGGLVQAGGSLRLSCAASGSIFGGYTMGWYRPAPGKERELVAAITKNGGRTYYADSVKGRFTISRDTAKPTVYLQMNSLKPEDTAVYYCAAATSPSWYTWVTYDYWGQGTQVTVSS | high polyreactivity
QVQLVESGGGLVQAGGSLRLSCAASGSIFGGYTMGWYRQAPGKERELVAGITISGGSTYYADSVKGRFTISRDNAKNTVYLQMNSLKPEDTAVYYCAAVSFVVSSWGYGYWGQGTQVTVSS | low polyreactivity
QVQLVESGGGLVQAGGSLRLSCAASGSIFGGYTMGWYRQPPGKERELVATISRRGGRTYYADSVKGRFTISRDNAKNTVYLQMNSLKPEDTAVYYCAARWGRGLEFDYWGQGTQVTVSS | high polyreactivity
QVQLVESGGGLVQAGGSLRLSCAASGSIFGHNTMGWYRPAPGKERELVAAITWNGGRTYYADSVKGRFTISRDNAMNTVYLQMNSLKPEDTAVYYCNAVVKTYAYKAHRYPSTRLNYWGQGTQVTVSS | high polyreactivity
QVQLVESGGGLVQAGGSLRLSCAASGSIFGINVMGWYRQAPGKERELVAAITSGTSTYYADSVKGRFTISRDNANNTVYLQMNSLKPEDTAVYYCAALWSSRYVVHPQWYDYWGQGTQVTVSS | low polyreactivity
QVQLVESGGGLVQAGGSLRLSCAASGSIFGIYAKGWYRQAPGKERELVAAITTTGGTSDYADSVKGRFTISRENAKNTVYVQMKSLKPVDTAVYYCAADAYYYWYYSLDYYYWGQGTQVTVSS | high polyreactivity
QVQLVESGGGLVQAGGSLRLSCAASGSIFGIYAMGWYRPAPGKERELVATINSRGTTNYADSVKGRFTISRDNAKNTVYLQMNSLKPEDTAVYYCAARFSTYRGKRKGYEYWGQGTQVTVSS | high polyreactivity
QVQLVESGGGLVQAGGSLRLSCAASGSIFGIYAMGWYRQAPGKERELVAAISGSGGDTYYADSVKGRFTISRDNAKNTVYLQMNSLKPEDTAVYYCAATTGAAYPFDYWGQGTQVTVSS | low polyreactivity
QVQLVESGGGLVQAGGSLRLSCAASGSIFGKNAMGWYRQAPGKERELVAAITSTGTSTYYADSVKGRFTISRDTAKNTVYLQMNSLKAEDTAVYYCADETARWDYGYWGQGTQVTVSS | low polyreactivity
QVQLVESGGGLVQAGGSLRLSCAASGSIFGKYAMGWYRQAPGKERELVAAISYSGGSTYYADSVKGRFTISRDNAKNTVYLQMNSLKPEDTAVYYCAVRGWGSAGKYDYWGQGTQVTVSS | high polyreactivity
QVQLVESGGGLVQAGGSLRLSCAASGSIFGKYAMGWYRQAPGKERELVATINRGGGGTYYADSVKGRFTISRDNAKNTVYLQMNSLKPEDTAVYYWAVSYRSYVWYGYWGQGTQVTVSS | high polyreactivity
QVQLVESGGGLVQAGGSLRLSCAASGSIFGLNAMGWYRQAPGKERELVAAISGGSTNYADSVKGRFTISRDNAKNTVYLQMNSLKPEDTAVYYCAARARRRYYYWGQGTQVTVSS | high polyreactivity
QVQLVESGGGLVQAGGSLRLSCAASGSIFGLYAMGWYRQAPGKERELVAAINWNGGDTYYADSVKGRFTISRDNAKNTVYLQMNSLKPEDTAVYYCAAELYRYGIRRRHYDYWGQGTLVTVSS | low polyreactivity
QVQLVESGGGLVQAGGSLRLSCAASGSIFGLYAMGWYRQAPGKERELVAAISRSGGSTYYADSVKGRFTISRDNAKNTVYLQMYSLKPEDSAVYDCNALRWSQYTYSSRLGHFDSWGQGTQVTVSS | high polyreactivity
QVQLVESGGGLVQAGGSLRLSCAASGSIFGLYAMGWYRQAPGKERELVAAISTSSGRTYYADSVKGRFTISRDNAKNTVYLQMNSLKPEDTAVYYCNARVYVTSGFRYDYWGQGTQVTVSS | high polyreactivity
QVQLVESGGGLVQAGGSLRLSCAASGSIFGLYAMGWYRQAPGKERELVAAITDSTGSTSYADSVKGRFTISRDNAKNTVYLQMTSLKPEDTAVYYCAAGQGRWRHGFDYWGQGTQVTVSS | low polyreactivity
QVQLVESGGGLVQAGGSLRLSCAASGSIFGNYVMGWYRQSPGKERELVAAISWSGGTNYADSVKGRFTISRDNAKNTVYLQMNSLKPEDTAVYYCATVIRGHKRFAYGYWGQGTQVTVSS | high polyreactivity
QVQLVESGGGLVQAGGSLRLSCAASGSIFGPNAMGRSRQAPGKERELVAAISWVGGSTYYADSVKGRFTISGDIAKNTVYLQMNSLKPEDTAVYYCNASGYHDTALRYDYWGQGTQVTVSS | low polyreactivity
QVQLVESGGGLVQAGGSLRLSCAASGSIFGPNAMGWYRQAPGKERELVAAITLSGGSTYYADSVKGRFTISRDNAKNTVYLQMNSLKPEDTAVYYCNADLLPADAPLWVTGGDYWGQGTQVTVSS | low polyreactivity

Sequence | polyreactivity (PSR sort gate)
QVQLVESGGGLVQAGGSLRLSCAASGSIFGPNAMGWYRQAPGKERELVAAITSGSSTKYADSVKGRFTISRDNATNTVYLQMNSLKPEDTAVYYCAASGTSTWKYGYWGQGSQVTVSS | low polyreactivity
QVQLVESGGGLVQAGGSLRLSCAASGSIFGPYAMGGYRQAPGKERELVAAISSGGSTNYADSVKGRFTISRDNAKNTVYLQMNSLKPEDTAVYYCAADRKYFYLWLDQEHRYYWGQGTQVTVSS | low polyreactivity
QVQLVESGGGLVQAGGSLRLSCAASGSIFGPYAMGWYRQAPGKERELVAAISNGGTTYYADSVKGRFTISRDNAKYTVYLQMNSLKPEDTAVYYCNAEQYLYYILGNYDYWGQGTQVTVSS | low polyreactivity
QVQLVESGGGLVQAGGSLRLSCAASGSIFGPYAMGWYRQAPGKERELVAAISTRGGRTYYADSVKGRFTISRDNAKNTVYLQMNSLKPEDTAVYYCNARRSDSRSYDYWGQGTQVTVSS | high polyreactivity
QVQLVESGGGLVQAGGSLRLSCAASGSIFGPYAMGWYRQAPGKERELVAVISKRGGSTYYADSVKGRFTISRDNAKNTVYLQMNSLKPEDTAVYYCAADYDWDPYRIYYLASYDYWGQGTQVTVSS | high polyreactivity
QVQLVESGGGLVQAGGSLRLSCAASGSIFGQNAMGWYRQAPGKERELVAAITSGAGITYYADSVKGRFTISRDNAKNTVYLQMNSLKPEDPAVYYCIAVPSWSPSPLFDYWGQGTQVTVSS | low polyreactivity
QVQLVESGGGLVQAGGSLRLSCAASGSIFGRNALGWSRQAPGKERELVAAIRDSGTSTYYADSVKGRFTISRDNAKNTVYLQMNSLKPEDTAVYYCAASRRPGYTYGYWGQGTQVTVSS | high polyreactivity
QVQLVESGGGLVQAGGSLRLSCAASGSIFGRNAMGWYRQAPGKEREFVATITSRGGRTYYADSVKGRFTISRDNAKNTVYLQMNSLKPEYTAVYYCAADTYISTLKKYRLGDYWGQGTQVTVSS | low polyreactivity
QVQLVESGGGLVQAGGSLRLSCAASGSIFGRYAMGWYRQAPGKEREFVSAISSSGGRTYYADSVKGRFPISRDNAKNTVYLQMNSLKPEDTAVYYCATEGYYSRTRLYLEYDYWGQGTQVTVSS | high polyreactivity
QVQLVESGGGLVQAGGSLRLSCAASGSIFGRYAMGWYRQAPGKERELVAAISRTGVSTYYADSVKGRFTISRDNAKNTVYLQMKSLKTEDSAVYYCKAVRLSWQYTYYYWGQGTQVTVSS | high polyreactivity
QVQLVESGGGLVQAGGSLRLSCAASGSIFGRYAMGWYRQAPGKERELVAAITFSGASTYYADSVKGRFTISRDNAKNTVYLQMNSLKPEDTAVYYCAADGGTIEGDYWGQGTQVTVSS | low polyreactivity
QVQLVESGGGLVQAGGSLRLSCAASGSIFGRYAMGWYRQAPGKERELVAAITGSGGTTYYADSVKGRFTISRDNAKNTVYLQMNSLKPEDTAVYYCAADPQVYYSGRPRYDYWGQGTQVTVSS | high polyreactivity
QVQLVESGGGLVQAGGSLRLSCAASGSIFGRYAMGWYRQAPGKERELVAVITSGGSTNYADSVKGRFTISRDKAKNTVYLQMNSLKPEDTAVYYCAVRPYELHRLADQPGGDDYWGQGTQVTVSS | low polyreactivity
QVQLVESGGGLVQAGGSLRLSCAASGSIFGRYAMGWYRQAPGNERELVAGICSRGTSTYYADSVKGRFTISRDNAKNTVYLQMNSLKPEDTAVYYCNAYPYYIVGSRYDYWGQGTQVTVSS | high polyreactivity
QVQLVESGGGLVQAGGSLRLSCAASGSIFGRYGAMGWYRQAPGKERELVAAIRTSGVSTYYADSVKGRFTISRDNAKNTVYLQMNSLKPEDTAVYYCAKGYNSYNLGKYGYWGQGTQVTVSS | low polyreactivity
QVQLVESGGGLVQAGGSLRLSCAASGSIFGRYGMGWYRQAPGKERELVAAITSGTRTNYADSVKGRFTISRDNAKNTVYLQMNSLKPEDTAVYYCNALRLRGNYEYGYWGHGTQVTVSS | low polyreactivity
QVQLVESGGGLVQAGGSLRLSCAASGSIFGSNAMGWYRQAPGKERELVAAITESGGDTYYADSVKGRFTISRDNAKNTVYLQMNSLKPEDTAVYYCAARYFGVIVDVSLFREYGSWGQGTQVTVSS | low polyreactivity
QVQLVESGGGLVQAGGSLRLSCAASGSIFGSYAMGWYRPAPGKERELVAAITIADITYYADSVKGRFTISRDNAKNTVYLQMNSLKPEDTAVYYCAAPYSPLWYPGGDYWRQGTQVTVSS | low polyreactivity
QVQLVESGGGLVQAGGSLRLSCAASGSIFGSYAMGWYRQAPGKERELVAAITYSGTSTYYADSVKGRFTISRDNAKNTVYLQMNSLKPEDTAVYYCNAVSRHRSKFDYWGQGTQVTVSS | high polyreactivity
QVQLVESGGGLVQAGGSLRLSCAASGSIFGSYAMGWYRQAPGKERELVAVITSSGNTKYADSVKGRFTISRDNAKNTVYLQMNSLKPEDTAVYYCAARFITWGSQYSFRSMDYWGQGTQVTVSS | high polyreactivity
QVQLVESGGGLVQAGGSLRLSCAASGSIFGSYAMGWYRQGAGKERELVAGITYDGGSTYYADSVKGRFTISRDNAKNTVYLQMNSLKPEDTAVYYCAAVDIRLEWDFWFQPTYEYWGQGTQVTVSS | low polyreactivity
